Here are results for one molecule from PMC12532034 (Cancer immunology research, 2025).

The target in the experiment is T1, GST-Rb 379–928 (UniProt P06400 379-928).
T1 sequence (looked up): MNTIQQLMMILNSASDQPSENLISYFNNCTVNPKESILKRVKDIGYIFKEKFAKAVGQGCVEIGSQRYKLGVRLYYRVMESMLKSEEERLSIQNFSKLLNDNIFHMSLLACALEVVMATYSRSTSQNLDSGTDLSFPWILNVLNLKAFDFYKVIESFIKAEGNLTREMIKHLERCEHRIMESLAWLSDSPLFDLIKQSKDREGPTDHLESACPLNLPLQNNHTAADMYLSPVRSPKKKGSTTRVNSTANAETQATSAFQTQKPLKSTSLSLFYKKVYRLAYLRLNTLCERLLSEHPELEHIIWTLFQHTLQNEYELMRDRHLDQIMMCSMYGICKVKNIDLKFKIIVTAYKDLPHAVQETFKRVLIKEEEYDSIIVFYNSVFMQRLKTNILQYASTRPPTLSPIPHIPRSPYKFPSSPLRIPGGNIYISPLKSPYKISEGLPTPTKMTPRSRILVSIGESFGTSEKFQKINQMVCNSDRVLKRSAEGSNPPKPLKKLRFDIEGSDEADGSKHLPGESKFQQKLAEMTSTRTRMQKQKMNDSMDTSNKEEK
The experiment in a line: AlphaScreen or HTRF. In general terms: Bead proximity is the source of the signal in Alpha formats.

B1: MBP-E2F1 (natural protein)
chain: not shown
B1: the binding result is reported as “binds”.
